Results published in patent publication US20240270821A1, “GIP/GLP1/GCG TRI-RECEPTOR AGONISTS AND USES THEREOF” (priority 2023, published 2024).
Residue numbers refer to the chain shown, from its start.

T1: human GIP receptor (human) (UniProt P48546)
T1 sequence (looked up): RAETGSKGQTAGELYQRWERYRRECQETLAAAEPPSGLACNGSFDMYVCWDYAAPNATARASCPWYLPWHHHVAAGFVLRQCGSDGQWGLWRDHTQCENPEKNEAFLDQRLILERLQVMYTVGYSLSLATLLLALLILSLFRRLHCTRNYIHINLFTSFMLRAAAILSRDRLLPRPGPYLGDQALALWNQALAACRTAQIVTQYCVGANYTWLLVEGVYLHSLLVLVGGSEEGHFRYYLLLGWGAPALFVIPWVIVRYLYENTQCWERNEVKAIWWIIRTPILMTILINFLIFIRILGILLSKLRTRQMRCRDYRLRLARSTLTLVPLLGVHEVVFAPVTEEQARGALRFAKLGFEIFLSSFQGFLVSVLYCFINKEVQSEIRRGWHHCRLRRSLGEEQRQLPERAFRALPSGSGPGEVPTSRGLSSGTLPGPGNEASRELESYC

B1: Example 433 (peptide)
chain: YXQGTXTSDYSILLDKKAQXAFIEYLEEGGPSSGAPPPSE
modifications: synthetic construct; SITE 2: note = 2-Aminoisobutyric Acid; SITE 6: note = alpha-methyl-2-fluoro-L-phenylalanine; SITE 17: note = Lysine is chemically modified through conjugation of the epsilon-amino group of the Lysine side chain with (gamma-Glu)2-CO-(CH2)16-CO2H; SITE 20: note = 2-Aminoisobutyric
B2: Example 444 (peptide)
chain: YXQGTXTSDXXIXLDXIAQXXFIEXLIKGGPSSGEPPPE
modifications: not fully specified; synthetic construct; SITE 2: note = 2-Aminoisobutyric Acid; SITE 6: note = alpha-methyl-2-fluoro-L-phenylalanine; SITE 10: note = 3-(4-Pyridyl)-L-alanine; SITE 11: note = alpha-methyl-L-serine; SITE 13: note = alpha-methyl-leucine; SITE 16: note = L-ornithine; SITE 20: note = 2-Aminoisobutyric Acid;
B3: Example 39 (peptide)
chain: YXQGTFTSDFSKXLDKKAQXAFIQWLLEGGPSSGAPPPSEG
modifications: Lys acylated; non-natural residues; C-amide; synthetic construct; SITE 2: note = 2-Aminoisobutyric Acid; SITE 13: note = alpha-methyl-leucine; SITE 17: note = Lysine is chemically modified through conjugation of the epsilon-amino group of the Lysine side chain with (2-[2-(2-Amino-ethoxy)-ethoxy]-acetyl)-(gamma-Glu)-CO-(CH2) 18-CO2H; SITE 20: n
B4: Example 40 (peptide)
chain: B3 chain with Q24E, L27I
modifications: Aib, αMeL; lysine acylated; C-terminal amide; synthetic construct; SITE 2: note = 2-Aminoisobutyric Acid; SITE 13: note = alpha-methyl-leucine; SITE 17: note = Lysine is chemically modified through conjugation of the epsilon-amino group of the Lysine side chain with (2-[2-(2-Amino-ethoxy)-ethoxy]-acetyl)-(gamma-Glu)-CO-(CH2) 18-CO2H; SITE 20: n
B5: Example 420 (peptide)
chain: YXQGTXTSDYXIXLDXKAQXAFIEYLLEGGPSSGEPPPE
modifications: synthetic construct; SITE 2: note = 2-Aminoisobutyric Acid; SITE 6: note = alpha-methyl-L-phenylalanine; SITE 11: note = alpha-methyl-L-serine; SITE 13: note = alpha-methyl-leucine; SITE 16: note = L-ornithine; SITE 17: note = Lysine is chemically modified through conjugation of the epsilon-amino gr
B6: Example 437 (peptide)
chain: B2 chain with I17K, I27A, K28E
modifications: synthetic construct; SITE 2: note = 2-Aminoisobutyric Acid; SITE 6: note = alpha-methyl-2-fluoro-L-phenylalanine; SITE 10: note = 3-(4-Pyridyl)-L-alanine; SITE 11: note = alpha-methyl-L-serine; SITE 13: note = alpha-methyl-leucine; SITE 16: note = L-ornithine; SITE 17: note = Lysine is chemically mo
B7: Example 439 (peptide)
chain: B2 chain with I17K, I27Q, K28E
modifications: synthetic construct; SITE 2: note = 2-Aminoisobutyric Acid; SITE 6: note = alpha-methyl-2-fluoro-L-phenylalanine; SITE 10: note = 3-(4-Pyridyl)-L-alanine; SITE 11: note = alpha-methyl-L-serine; SITE 13: note = alpha-methyl-leucine; SITE 16: note = L-ornithine; SITE 17: note = Lysine is chemically mo
B8: Example 438 (peptide)
chain: B2 chain with I17K, I27S, K28E
modifications: synthetic construct; SITE 2: note = 2-Aminoisobutyric Acid; SITE 6: note = alpha-methyl-2-fluoro-L-phenylalanine; SITE 10: note = 3-(4-Pyridyl)-L-alanine; SITE 11: note = alpha-methyl-L-serine; SITE 13: note = alpha-methyl-leucine; SITE 16: note = L-ornithine; SITE 17: note = Lysine is chemically mo
B9: Example 436 (peptide)
chain: B2 chain with I17K, X21S, K28E
modifications: synthetic construct; SITE 2: note = 2-Aminoisobutyric Acid; SITE 6: note = alpha-methyl-2-fluoro-L-phenylalanine; SITE 10: note = 3-(4-Pyridyl)-L-alanine; SITE 11: note = alpha-methyl-L-serine; SITE 13: note = alpha-methyl-leucine; SITE 16: note = L-ornithine; SITE 17: note = Lysine is chemically mo
B10: Example 429 (peptide)
chain: YXQGTXTSDXXIXLDXKAQXXFIEXLIEGGPSSGAPEPSEG
modifications: synthetic construct; SITE 2: note = 2-Aminoisobutyric Acid; SITE 6: note = alpha-methyl-2-fluoro-L-phenylalanine; SITE 10: note = 3-(4-Pyridyl)-L-alanine; SITE 11: note = alpha-methyl-L-serine; SITE 13: note = alpha-methyl-leucine; SITE 16: note = L-ornithine; SITE 17: note = Lysine is chemically mo
B11: Example 417 (peptide)
chain: YXQGTXTSDYSIXLDKKAQXAFIEYLLETGPSSGAPPPSEG
modifications: synthetic construct; SITE 2: note = 2-Aminoisobutyric Acid; SITE 6: note = alpha-methyl-2-fluoro-L-phenylalanine; SITE 13: note = alpha-methyl-leucine; SITE 17: note = Lysine is chemically modified through conjugation of the epsilon-amino group of the Lysine side chain with (2-[2-(2-Amino-ethoxy)-et)
B12: Example 434 (peptide)
chain: B11 chain with X13L, L27E, T29G
modifications: synthetic construct; SITE 2: note = 2-Aminoisobutyric Acid; SITE 6: note = alpha-methyl-2-fluoro-L-phenylalanine; SITE 17: note = Lysine is chemically modified through conjugation of the epsilon-amino group of the Lysine side chain with (gamma-Glu)2-CO-(CH2)16-CO2H; SITE 20: note = 2-Aminoisobutyric
B13: Example 435 (peptide)
chain: B11 chain with X13L, L27E, T29G, E40G, G41E
modifications: synthetic construct; SITE 2: note = 2-Aminoisobutyric Acid; SITE 6: note = alpha-methyl-2-fluoro-L-phenylalanine; SITE 17: note = Lysine is chemically modified through conjugation of the epsilon-amino group of the Lysine side chain with (gamma-Glu)2-CO-(CH2)16-CO2H; SITE 20: note = 2-Aminoisobutyric
B14: Example 431 (peptide)
chain: B11 chain with L27E, T29G
modifications: synthetic construct; SITE 2: note = 2-Aminoisobutyric Acid; SITE 6: note = alpha-methyl-2-fluoro-L-phenylalanine; SITE 13: note = alpha-methyl-leucine; SITE 17: note = Lysine is chemically modified through conjugation of the epsilon-amino group of the Lysine side chain with (2-[2-(2-Amino-ethoxy)-et)

Molecular target: hGLP-1R (Homo sapiens, UniProt P43220)
Test: cell-based or functional assay

hGLP-1R, sequence (P43220 24-463): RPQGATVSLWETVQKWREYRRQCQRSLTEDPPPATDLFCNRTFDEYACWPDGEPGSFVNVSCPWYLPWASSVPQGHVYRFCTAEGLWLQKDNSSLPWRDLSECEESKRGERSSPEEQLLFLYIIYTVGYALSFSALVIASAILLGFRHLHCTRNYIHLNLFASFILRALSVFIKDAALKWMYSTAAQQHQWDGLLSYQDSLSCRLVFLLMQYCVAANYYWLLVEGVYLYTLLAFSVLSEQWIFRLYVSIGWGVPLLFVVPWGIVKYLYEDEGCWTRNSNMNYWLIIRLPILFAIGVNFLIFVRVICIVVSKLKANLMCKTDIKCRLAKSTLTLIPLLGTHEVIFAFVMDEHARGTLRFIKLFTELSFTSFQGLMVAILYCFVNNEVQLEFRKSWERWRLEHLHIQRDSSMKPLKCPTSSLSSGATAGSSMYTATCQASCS

Point of comparison: B3, Relative cAMP EC50 2.13 nM. Against it:
- B1 — 7.8-fold lower, 0.273 nM
- B2 — 6.1-fold lower, 0.352 nM
- B4 — 3.1-fold lower, 0.693 nM
- B5 — 10-fold lower, 0.205 nM
- B6 — 5.1-fold lower, 0.421 nM
- B7 — 7.3-fold lower, 0.293 nM
- B8 — 2.6-fold lower, 0.815 nM
- B9 — 12-fold lower, 0.173 nM
- B10 — 12-fold lower, 0.178 nM
- B11 — 6.5-fold lower, 0.328 nM
- B12 — 9-fold lower, 0.236 nM
- B13 — 6.8-fold lower, 0.311 nM
- B14 — 5.4-fold lower, 0.392 nM

Point of comparison: B10, cAMP Rel EC50, nM (1% HSA) 12.1 nM. Against it:
- B1 — 3.6-fold higher, 43.4 nM
- B2 — 4.5-fold higher, 54.6 nM
- B5 — 2.6-fold higher, 31.3 nM
- B6 — 2.2-fold higher, 26.9 nM
- B7 — within 1.5-fold, 15.1 nM
- B8 — 3.4-fold higher, 41.1 nM
- B9 — within 1.5-fold, 11.7 nM
- B11 — 5.5-fold higher, 67 nM
- B12 — 2.9-fold higher, 35 nM
- B13 — 2.8-fold higher, 33.6 nM
- B14 — 2.9-fold higher, 35.2 nM

Point of comparison: B4, cAMP Rel EC50 (in the presence of 1% HSA) 138 nM. Against it:
- B3 — 1.9-fold higher, 260 nM

Molecular target: T1, human GIP receptor (human)
Test: cell-based or functional assay

Point of comparison: B13, Relative cAMP EC50 0.0239 nM. Against it:
- B1 — within 1.5-fold, 0.0206 nM
- B2 — 2.3-fold lower, 0.0106 nM
- B3 — 13-fold higher, 0.299 nM
- B4 — 5.8-fold higher, 0.139 nM
- B5 — 1.8-fold lower, 0.0131 nM
- B6 — 3.6-fold higher, 0.0872 nM
- B7 — 2.7-fold higher, 0.0634 nM
- B8 — 9.4-fold higher, 0.225 nM
- B9 — within 1.5-fold, 0.0294 nM
- B10 — 1.7-fold lower, 0.0142 nM
- B11 — 1.7-fold lower, 0.0144 nM
- B12 — within 1.5-fold, 0.0226 nM
- B14 — 1.5-fold lower, 0.0157 nM

Point of comparison: B7, cAMP Rel EC50, nM (1% HSA) 14.6 nM. Against it:
- B1 — within 1.5-fold, 15.3 nM
- B2 — 8.4-fold lower, 1.74 nM
- B5 — 5.6-fold lower, 2.61 nM
- B6 — within 1.5-fold, 16.9 nM
- B8 — 3.7-fold higher, 53.8 nM
- B9 — 12-fold lower, 1.18 nM
- B10 — 7.7-fold lower, 1.89 nM
- B11 — 3.3-fold lower, 4.46 nM
- B12 — within 1.5-fold, 10.6 nM
- B13 — within 1.5-fold, 10.3 nM
- B14 — 3.9-fold lower, 3.73 nM

Point of comparison: B3, cAMP Rel EC50 (in the presence of 1% HSA) 30.5 nM. Against it:
- B4 — 2.5-fold higher, 76.7 nM

Molecular target: human glucagon receptor (human) (UniProt P47871)
Test: cell-based or functional assay

human glucagon receptor (human), sequence (P47871 26-477): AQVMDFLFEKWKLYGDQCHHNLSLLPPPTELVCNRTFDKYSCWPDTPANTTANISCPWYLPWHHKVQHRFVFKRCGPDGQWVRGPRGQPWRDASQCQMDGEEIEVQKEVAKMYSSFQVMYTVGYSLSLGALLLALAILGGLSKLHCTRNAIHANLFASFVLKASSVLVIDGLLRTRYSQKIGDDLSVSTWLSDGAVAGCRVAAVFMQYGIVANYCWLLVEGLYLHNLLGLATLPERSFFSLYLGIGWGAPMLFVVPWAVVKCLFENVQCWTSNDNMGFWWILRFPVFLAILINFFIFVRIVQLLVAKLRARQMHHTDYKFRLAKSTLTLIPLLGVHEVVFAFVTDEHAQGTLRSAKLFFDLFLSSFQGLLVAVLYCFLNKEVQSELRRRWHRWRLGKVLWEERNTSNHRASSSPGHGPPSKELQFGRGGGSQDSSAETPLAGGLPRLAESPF

Point of comparison: B8, Relative cAMP EC50 3.62 nM. Against it:
- B1 — 1.6-fold higher, 5.78 nM
- B2 — 1.8-fold higher, 6.49 nM
- B3 — 2.8-fold higher, 10.1 nM
- B4 — 3.4-fold higher, 12.3 nM
- B5 — within 1.5-fold, 2.49 nM
- B6 — 2.1-fold lower, 1.76 nM
- B7 — within 1.5-fold, 4.38 nM
- B9 — 1.6-fold lower, 2.27 nM
- B10 — 3-fold lower, 1.19 nM
- B11 — within 1.5-fold, 2.83 nM
- B12 — within 1.5-fold, 2.84 nM
- B13 — within 1.5-fold, 3.01 nM
- B14 — within 1.5-fold, 3.32 nM

Point of comparison: B9, cAMP Rel EC50, nM (1% HSA) 182 nM. Against it:
- B1 — 2.9-fold higher, 532 nM
- B2 — 7-fold higher, 1280 nM
- B5 — 2.4-fold higher, 433 nM
- B6 — within 1.5-fold, 188 nM
- B7 — within 1.5-fold, 165 nM
- B8 — 2.4-fold higher, 431 nM
- B10 — within 1.5-fold, 138 nM
- B11 — 2.1-fold higher, 386 nM
- B12 — 2.9-fold higher, 525 nM
- B13 — 1.8-fold higher, 334 nM
- B14 — 1.9-fold higher, 352 nM

Point of comparison: B3, cAMP Rel EC50 (in the presence of 1% HSA) 1090 nM. Against it:
- B4 — 2.5-fold higher, 2750 nM
